Source: patent US20260226161A1 (EXELIXIS, published 2026)

B1: Antibody Clone A11 (antibody, human IgG1, kappa, V domains shown)
VH: EVQLVESGGGLVQPGGSLRLSCAASGFTFSWYYIHWVRQAPGKGLEWVAVIDPISSYTYYADSVKGRFTISADTSKNTAYLQMNSLRAEDTAVYYCARGFDRAMDYWGQGTLVTVSS
VL: DIQMTQSPSSLSASVGDRVTITCRASKSVSSALAWYQQKPGKAPKLLIYVGSSRYSGVPSRFSGSRSGTDFTLTISSLQPEDFATYYCQQYYSSPYTFGQGTKVEIKR
B2: P12 × A2 (1 × 1 format) (bispecific antibody)
heavy 1: DIQMTQSPSSLSASVGDRVTITCRASQSVSSAVAWYQQKPGKAPKLLIYSASSLYSGVPSRFSGSRSGTDFTLTISSLQPEDFATYYCQQFMLEPITFGQGTKVEIKGQPREPQVCTLPPSRDELTKNQVSLTCLVRGFYPSDIAVEWESNGQPENNYKTTPPVLDSDGSFFLYSKLTVDKSRWQQGNVFSCSVMHEALHNHYTQKSLSLSPGKDKTHTCPPCPAPEAAGGPSVFLFPPKPKDTLMISRTPEVTCVVVDVSHEDPEVKFNWYVDGVEVHNAKTKPREEQYNSTYRVVSVLTVLHQDWLNGKEYKCKVSNKALKAPIEKTISKAKGQPREPQVYTLPPSREEMTKNQVSLSCAVKGFYPSDIAVEWESNGQPENNYKTTPPVLDSDGSFFLVSKLTVDKSRWQQGNVFSCSVMHEALHNHYTQKSLSLSPGK
light 1: EVQLVESGGGLVQPGGSLRLSCAASGFTFSSYYIHWVRQAPGKGLEWVATINSRGGFTLYADSVKGRFTISADTSKNTAYLQMNSLRAEDTAVYYCARGYTLTPVLDYWGQGTLVTVSSAQPREPQVYTLPPCRDWLTKNQVSLTCLVKGFYPSDIAVEWESNGQPENNYKTTPPVLDSDGSFFLYSKLTVDKSRWQQGNVFSCSVMHEALHNHYTQKSLSLSPGK
heavy 2: not shown
light 2: EVQLVESGGGLVQPGGSLRLSCAASGFTFSSYYIHWVRQAPGKGLEWVASYVPEDGYTDYADSVKGRFTISADTSKNTAYLQMNSLRAEDTAVYYCARSSDFIPWTSSGGMDYWGQGTLVTVSSASTKGPSVFPLAPSSKSTSGGTAALGCLVKDYFPEPVTVSWNSGALTSGVHTFPAVLQSSGLYSLSSVVTVPSSSLGTQTYICNVNHKPSNTKVDKKVEPKSC
notes: One PD-L1 site, one NKG2A site; also called P12×A2, sFc; P12 × A2 sFc

Tests used:
[1] = molecular target: T1, biotinylated cyno NKG2A/CD94 heterodimer (extracellular domains) (cynomolgus, UniProt Q9MZJ3 94-233; Q9MZK9 32-179, biotinylated); assay: BLI (Octet), bivalent
T1 construct: also called Cynomolgus NKG2A protein; not shown: fusion partner/tags ('similar approach' to the human proteins); fusion partner ('similar approach')
T1 sequence (Q9MZJ3 other isoform, or with tags, fused parts or gaps, chain 1 of 2): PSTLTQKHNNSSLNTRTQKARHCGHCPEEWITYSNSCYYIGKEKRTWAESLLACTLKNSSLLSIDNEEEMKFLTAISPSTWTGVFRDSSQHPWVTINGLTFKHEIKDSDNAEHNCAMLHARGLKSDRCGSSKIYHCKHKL
T1 sequence (Q9MZK9 32-179, chain 2 of 2): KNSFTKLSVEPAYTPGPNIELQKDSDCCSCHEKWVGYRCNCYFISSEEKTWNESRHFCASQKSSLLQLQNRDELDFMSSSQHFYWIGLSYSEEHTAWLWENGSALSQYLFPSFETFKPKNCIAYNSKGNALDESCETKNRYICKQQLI
Protocol: (§1) A total of 58 binders formatted as IgG antibodies from phage display as described in Example 1 were further tested for binding.
(§2) The antibodies were evaluated for binding to (1) human NKG2A, (2) human NKG2C, and (3) cyno NKG2A. Bivalent interaction of binders to biotinylated human NKG2A (see Example 1), biotinylated human NKG2C/CD94 heterodimer, or biotinylated cyno NKG2A/CD94 heterodimer immobilized on a streptavidin biosensor was monitored using Octet (Pall ForteBio) instrument. For these assays, human NKG2C/CD94 and cyno NKG2A/CD94 were prepared using the procedure as described in Example 1. Similarly, the extracellular domain of human NKG2C was expressed and purified from HEK293 cells as heterodimer with CD94 as Fc fusions. The extracellular domain of NKG2C used for selection campaigns encompassed amino acid sequence Ile94-Leu231 (Accession No. P26717-1; SEQ ID NO: 75). The gene encoding CD94 (Accession No. Q13241-1, SEQ ID NO:76), Lys33-Ile159 was synthesized from IDT and cloned into mammalian expression vector as an N-terminal Fc (hole) fusion. Plasmids encoding NKG2C-Fc fusion and CD94-Fc fusion were co-transfected into HEK293T cells using standard procedures. NKG2C/CD94 heterodimer was purified from cell supernatant using Protein A resins. Similar approach was used to obtain Cynomolgus NKG2A protein. Specifically, extracellular domain of Cynomolgus NKG2A contained amino acid Pro 94-Leu 233. […] Extracellular domain of Cynomolgus CD94 contained amino acid residues Lys 33-Ile 179 (Accession No. Q68VD4-1; SEQ ID NO: 78).

[2] = molecular target: T2, biotinylated human NKG2C/CD94 heterodimer (extracellular domains, Fc fusions) (human, UniProt P26717 94-231; Q13241 32-179, biotinylated); assay: BLI (Octet), bivalent
T2 construct: not shown: N-terminal Fc (hole)
T2 sequence (P26717 other isoform, or with tags, fused parts or gaps, chain 1 of 2): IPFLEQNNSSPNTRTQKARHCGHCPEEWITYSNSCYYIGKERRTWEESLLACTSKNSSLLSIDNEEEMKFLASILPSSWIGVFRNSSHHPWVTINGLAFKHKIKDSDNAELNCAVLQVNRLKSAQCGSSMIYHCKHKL
T2 sequence (Q13241 32-179, chain 2 of 2): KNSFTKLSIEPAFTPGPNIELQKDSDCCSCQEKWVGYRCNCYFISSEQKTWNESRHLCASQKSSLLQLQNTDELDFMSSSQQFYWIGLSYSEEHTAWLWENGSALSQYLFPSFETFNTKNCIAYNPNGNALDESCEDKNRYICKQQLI
Protocol: as §1, §2

[3] = molecular target: T3, NKG2A expressed on KHYG-1 cells (endogenous) (human, UniProt P26715 1-233; Q13241 1-179); assay: flow cytometry on KHYG-1 cells expressing endogenous NKG2A
T3 construct: whole, on cells; Surface NKG2A copy number of approximately 10-20K; also called KHYG-1 cells expressing endogenous NKG2A; NKG2A-expressing cells
T3 sequence (P26715 whole entry, chain 1 of 2): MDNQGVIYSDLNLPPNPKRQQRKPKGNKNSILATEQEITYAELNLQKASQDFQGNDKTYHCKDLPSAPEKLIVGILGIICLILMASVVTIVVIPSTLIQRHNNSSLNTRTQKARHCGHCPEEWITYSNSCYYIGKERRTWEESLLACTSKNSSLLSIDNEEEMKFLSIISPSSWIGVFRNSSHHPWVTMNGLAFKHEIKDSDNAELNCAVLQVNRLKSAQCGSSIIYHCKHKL
T3 sequence (Q13241 whole entry, chain 2 of 2): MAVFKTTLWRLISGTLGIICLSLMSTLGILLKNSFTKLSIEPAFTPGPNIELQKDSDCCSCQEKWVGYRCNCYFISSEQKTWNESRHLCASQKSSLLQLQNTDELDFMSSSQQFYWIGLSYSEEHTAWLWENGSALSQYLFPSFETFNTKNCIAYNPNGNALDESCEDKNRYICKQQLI
Protocol: Antibodies that were selected for binding to NKG2A, for example, such as those described in Examples 1 and 2, were evaluated for binding to cells that express NKG2A.
Cells were harvested at 70-90% confluence on the day of the assay. Cells were collected by centrifugation at 200×g for 5 minutes and media was removed. Cells were resuspended at 2×10⁶ cells per mL in cold PBS. […] 50 μL per well of the antibody dilution was plated in a 96 well V-bottom plate (Costar 3897). 50 μL per well of cell suspension was added. Plates were placed at 4° C. for 45-60 minutes.

[4] = molecular target: T4, Human PD-L1 with His tag (AcroBiosystems) (human, UniProt Q9NZQ7 19-238); assay: SPR (Carterra), antibody on chip, soluble antigen
T4 construct: Bought protein; also called hPD-L1; not shown: His tag
T4 sequence (Q9NZQ7 19-238 limits assumed): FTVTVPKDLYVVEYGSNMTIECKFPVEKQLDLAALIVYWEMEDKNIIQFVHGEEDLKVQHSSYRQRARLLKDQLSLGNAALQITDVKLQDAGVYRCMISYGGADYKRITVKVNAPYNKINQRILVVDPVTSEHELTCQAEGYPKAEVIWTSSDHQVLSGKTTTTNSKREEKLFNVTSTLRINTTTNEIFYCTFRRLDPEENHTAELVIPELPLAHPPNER

[5] = molecular target: T5, Human NKG2A & CD94 with mouse IgG2a Fc tag (AcroBiosystems) (human, UniProt P26715 94-233; Q13241 32-179, limits assumed); assay: SPR (Carterra), antibody on chip, soluble antigen
T5 construct: Bought soluble antigen of the Carterra assay; also called hNKG2A; not shown: mouse IgG2a Fc tag
T5 sequence (P26715 94-233 limits assumed, chain 1 of 2): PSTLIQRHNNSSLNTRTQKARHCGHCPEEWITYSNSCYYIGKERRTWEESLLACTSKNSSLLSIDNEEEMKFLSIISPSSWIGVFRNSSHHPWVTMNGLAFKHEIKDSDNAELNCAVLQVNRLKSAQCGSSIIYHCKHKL
T5 sequence (Q13241 32-179 limits assumed, chain 2 of 2): as the sequence (Q13241 32-179, chain 2 of 2) above

Cyno PD-L1 = Cyno PD-L1 (cyno, UniProt G7PSE7 19-238); assay: SPR (Carterra), antibody on chip, soluble antigen
Chain of Cyno PD-L1 (G7PSE7 entry or part of it limits assumed): as the sequence (Q9NZQ7 19-238 limits assumed) above, with A33T, A34S, S62N, R68Q, Q82R, F173L, T185A, T192I, H215L counted along it

[6] = molecular target: T3, NKG2A expressed on KHYG-1 cells …; assay: flow cytometry competition; inhibition of HLA-E tetramer binding to KHYG-1 cells; second of the two EC50 values printed for P12×A2; the patent does not say what tells them apart
Protocol: (§3) 15 μL per well of binder dilution at 2× concentration was plated in a 96-well plate (Costar 3897). 15 μL per well of cell suspension at 5×10⁶ cells per mL was added. Plates were placed at 4° C. for 30 minutes. Following the incubation, 5 μL per well of Fc block (BD Pharmingen Cat #564220) was added at a final concentration of 500 ng per well. Plates were placed at 4° C. for 10 minutes. […] Plates were placed at 4° C. for 1 hour. Following the incubation, 100 μL per well of PBS was added and plate was centrifuged at 400×g for 7 minutes. Supernatant was removed by flicking the plate. Cells were resuspended in 50 μL per well of PBS and analyzed by flow cytometry (Intellicyt).

PD-L1 expressed on cells [7] = molecular target: T6, PD-L1 expressed on cells (UniProt Q9NZQ7 19-290, limits assumed); assay: cell-based or functional assay
T6 sequence (Q9NZQ7 19-290 limits assumed): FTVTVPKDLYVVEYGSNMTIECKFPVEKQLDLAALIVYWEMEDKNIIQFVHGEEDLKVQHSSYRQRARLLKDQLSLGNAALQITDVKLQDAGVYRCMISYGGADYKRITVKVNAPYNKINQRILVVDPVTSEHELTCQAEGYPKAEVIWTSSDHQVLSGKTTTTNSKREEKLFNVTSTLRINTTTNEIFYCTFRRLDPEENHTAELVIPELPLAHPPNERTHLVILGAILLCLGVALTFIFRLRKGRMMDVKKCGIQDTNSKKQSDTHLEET

PD-L1 expressed on cells [8] = molecular target: T6, PD-L1 expressed on cells; assay: flow cytometry on MC/CAR cells expressing PD-L1
Protocol: (§4) Cells were collected by centrifugation at 400×g for 7 minutes and primary antibody was removed. 50 μL per well of AF488 goat anti human IgG Fab (Jackson Immuno Research 109-547-003) at 1:100 dilution was added. Plates were placed at 4° C. for 30 minutes.
(§5) Cells were collected by centrifugation at 400×g for 7 minutes and secondary antibody was removed. Cells were resuspended in 50 μL per well of PBS and analyzed by flow cytometry. Binding curves were calculated using the mean fluorescence intensity (MFI) of the FITC fluorescence signal on the cells. Bispecific antibody binding was evaluated in KHYG-1 cells expressing endogenous NKG2A and in MC/CAR cells expressing PD-L1. Cells were harvested and assayed for binding as described above.

[9] = molecular target: T3, NKG2A expressed on KHYG-1 cells …; assay: flow cytometry on KHYG-1 cells expressing endogenous NKG2A; remark: listed apart in the source
Protocol: as §4, §5

[10] = molecular target: T3, NKG2A expressed on KHYG-1 cells …; assay: flow cytometry competition; inhibition of HLA-E tetramer binding to KHYG-1 cells; first of the two EC50 values printed for P12×A2; the patent does not say what tells them apart
Protocol: as §3

[11] = molecular target: T7, cynomolgus NKG2A/CD94 (soluble antigen of the equilibrium assay) (cynomolgus, UniProt Q68VD2 94-233; Q68VD4 32-179, Biotinylated in the Octet assays of Example 2; state in the SPR equilibrium assay not seen.); assay: SPR equilibrium response, Langmuir isotherm; antibody on chip, soluble antigen
T7 construct: also called Cyno NKG2A/CD94; copies: 1 + 1
T7 sequence (NKG2A, as listed by the source limits assumed, chain 1 of 2): as the sequence (Q9MZJ3 other isoform, or with tags, fused parts or gaps, chain 1 of 2) above
T7 sequence (CD94, as listed by the source limits assumed, chain 2 of 2): as the sequence (Q9MZK9 32-179, chain 2 of 2) above
Protocol: In addition, a method using an equilibrium approach was performed. Kd determinations for cynomolgus NKG2A/CD94 were performed by measuring the signal response at equilibrium. […] The equilibrium response signals and corresponding antigen concentrations were then input into a Langmuir binding isotherm model, and the Kd was determined through nonlinear regression. Averages and standard deviations were calculated from 24 replicate chip locations for each molecule.

Row | Binder | binding result [1] | binding result [2] | EC50 [3] [nM] | Kd [4] [nM] | koff [4] [s⁻¹] | kon [4] [M⁻¹ s⁻¹] | Kd [5] [nM] | koff [5] [s⁻¹] | kon [5] [M⁻¹ s⁻¹] | Kd (Cyno PD-L1) [nM] | koff (Cyno PD-L1) [s⁻¹] | kon (Cyno PD-L1) [M⁻¹ s⁻¹] | EC50 [6] [nM] | IC50 of inhibiting PD-1/PD-L1 interaction in PD-L1+MDA-MB-231 cells (PD-1/PD-L1 Signaling Bioassay, chemiluminescent signal) (PD-L1 expressed on cells [7]) [nM] | EC50 (PD-L1 expressed on cells [8]) [nM] | EC50 [9] [nM] | EC50 [10] [nM] | Kd [11] [nM]
1 | B1 | no binding | no binding | 4.35 |  |  |  |  |  |  |  |  |  |  |  |  |  |  | 
2 | B2 |  |  |  | 0.13 | 7e-05 | 530000 | 0.21 | 8e-05 | 360000 | 0.1 | 6e-05 | 560000 | 65.2 | 0.408 | 55.9 | 4.66 | 21 | 42
